In PMC6395754:

Molecular target: profilin1 (PFN1) (UniProt P07737)
Assay: GST-PFN1 pull-down from cell lysate
Conditions: reference: wild type

Row | binding against the reference (sites S629) | binding against the reference (sites S665) | Substance
1 | stronger |  | DIAPH1 (from UniProt O60610) S629A
2 |  | stronger | DIAPH1 (from UniProt O60610) S665A
